The results in this text go back to patent publication US20090075291A1, “PEPTIDE-BASED REGULATION OF GAP JUNCTIONS” (The Research Foundation of State University of New York, priority 2006, published 2009).

The target of assay [1] is T1, Cx43CT (Rattus norvegicus, UniProt P08050).
T1 construct: GST (N, cleaved yes); made in house; host or cells: E. coli BL-21
The assay can be described thus: Surface Plasmon Resonance (SPR) binding of synthetic peptides to immobilised recombinant Cx43CT. Particulars: for SPR binding to Cx43CT (in words): Cx43CT bound to carboxymethyl dextran matrix. The source says:
Recombinant Cx43CT was produced as described in Duffy et al., “pH-Dependent Intramolecular Binding and Structure Involving Cx43 Cytoplasmic Domains,” J. Biol. Chem. 277(39):36706-36714 (2002), which is hereby incorporated by reference in its entirety. Briefly, cDNA derived from rat Cx43 was inserted into pGEX-6P-2 (Amersham) and expressed in E. coli (BL-21). The resultant GST-fusion protein was cleaved from the GST PreScission Protease® (Amersham Biosciences). The recombinant product after cleavage contained the sequence 255-382 of rCx43 preceded by four additional amino acids (GPLG). Protein concentration was measured using the Bio-Rad DC Protein Assay. Protein purity was assessed by SDS-PAGE.
Recombinant Cx43CT was covalently bound to a carboxylmethyl dextran matrix (Salamon et al., “Surface Plasmon Resonance Spectroscopy as a Tool for Investigating the Biochemical and Biophysical Properties of Membrane Protein Systems. II: Applications to Biological Systems,” Biochim. Biophys. Acta 1331(2):131-152 (1997), which is hereby incorporated by reference in its entirety). Specific peptides were presented and, when feasible, dissociation constants (KD) were calculated from the time course of binding and unbinding of the ligand, using a 1:1 (Langmuir) association and dissociation kinetic model (Biacore software package). In both phases (association and dissociation), the first 5-8 seconds of recording were not included in the fit, to avoid artifacts resulting from peptide distribution within the flow cells (Lang et al., “Surface Plasmon Resonance as a Method to Study the Kinetics and Amplitude of Protein-protein Binding,” in PRACTICAL METHODS IN CARDIOVASCULAR RESEARCH 936-947 (Stefan Dhein, Friedrich Wilhelm Mohr & Mario Delmar eds., 2005), which is hereby incorporated by reference in its entirety).
Phage display allows for the rapid screening of thousands of peptides, but the characteristics of binding cannot be properly defined. Furthermore, the peptides are part of a capsid protein, which may affect the ability of the peptide to properly interact with the target protein. Therefore, some of the peptides identified by the phage screening were selected to, using SPR, further characterize their ability to bind Cx43CT. Recombinant Cx43CT was covalently bound to a carboxymethyl dextran matrix and synthetic peptides presented for binding. A total of six 12-mer peptides from the non-biased screening (peptides labeled RXP1 to RXP6 in Table 1) and 5 peptides from the biased screening (labeled RXP-A to RXP-E in Table 3) were tested. […] Peptide RXP4 (SEQ ID NO:15) caused the largest deflection in SPR signal. RXP4 (250 μM) was added at time “zero.” Washout was initiated after two minutes of exposure. […] Higher concentrations of the peptide were tested but an asymptotic maximum response could not be detected. In addition, dissociation rates were too fast to reliably use them to calculate the kinetics of binding.
A different result emerged from the testing of the doublets. […] The transitions were well-fit by exponential functions and the rates of association and dissociation were used as described in Example 4 to estimate the kinetic parameters. A full range of concentrations was tested in three separate occasions and at two different pHs of the solvent (6.5 and 7.4). […] Adhes. 8(4-6):219-223 (2001), which is hereby incorporated by reference in its entirety), and that measured for the binding of Aquaporin-0 to Cx45.6 (Yin et al., “The Development-associated Cleavage of Lens Connexin 45.6 by Caspase-3-like Protease is Regulated by Casein Kinase II-mediated Phosphorylation,” J. Biol. Chem. 276(37):34567-34572 (2001), which is hereby incorporated by reference in its entirety).
The peptides were tested for binding to the carboxyl terminal domain of Cx43 using Surface Plasmon Resonance (“SPR”). […]

The target of assay [2] is T1, Cx43CT. The assay can be described thus: Biased (XXXXRXPXXXX) phage display screening against Cx43CT. Type of assay: binding. To be noted: for Total Frequency (%): all three runs, 402 inserts sequenced; for Frequency Run 2(%) / Frequency Run 1 (%): binding step at pH 6.5; for Frequency Run 2(%): 119 inserts sequenced; for Frequency Run 1 (%): 120 inserts sequenced; for Frequency Run 3 (%): binding step at pH 7.4, 163 inserts sequenced. On the procedure:
A “library” of bacteriophage, displaying ˜[…] of 2.7×10^9 random 12-mer peptides (Ph.D.-12™ Phage display peptide library kit; New England BioLabs Inc.) was utilized. Wells in 24-well plates were coated with 15 μg of recombinant CT and blocked with 5 mg/ml BSA. After removing the unbound viruses by washing with Tris buffered saline containing 0.5% tween-20 (TBS-T), low affinity binders were eluted with a solution of TBS-containing Cx43CT at a concentration of 100 μg/ml. High affinity binders were recovered by overlaying the well with a culture of E. coli, to allow the tightly bound phage to infect the bacteria. This culture was amplified and the virus was precipitated with PEG. The amplified product was used for the subsequent round of panning. All steps were conducted at pH 6.5 unless otherwise indicated.
After three rounds of selection and amplification, the phage recovered from the last round of binding were grown on a lawn of E. coli for plaque purification. Each plaque, representing a single clone, was picked and amplified. The phage were isolated and analyzed by DNA sequencing.
The Ph.D. Peptide Display Cloning System (New England BioLabs Inc.) was used to create a biased phage display library of sequence XXXXRXPXXXX, where X is any amino acid flanking an arginine and a proline with an additional random residue at the center. The randomized peptides were followed by a Gly-Gly-Gly-Ser (SEQ ID NO:2) spacer. The library was cloned into M13 phage. These phage were analyzed for titer and sequence prior to screening for Cx43CT binding as described above.
The RXP motif was not detected in phage that bound to streptavidin. The motif occurred in different positions within the 12-mer peptide, thus preventing proper alignments to determine the frequency of other amino acids at specific positions relative to the RXP. To overcome this limitation and to search for peptides with higher binding affinity (see Example 10), a biased phage display library was generated where the RXP motif was forced to the center of the sequence, flanked at each side by 4 randomized amino acids. Sixty clones containing an insert (out of an estimated 3-4×10^4 total clones in the library) were chosen at random for sequencing prior to exposure of the library to Cx43CT. All inserts coded for an 11-mer peptide with the RXP motif in the appropriate location. In three independent runs, the same library was presented to Cx43CT. The binding step was carried out at pH 6.5 in two of the runs (run 1 and 2) and at pH 7.4 in one additional run (run 3). The total number of phage plaques containing a full coding insert that were recovered after the binding step were 120, 119 and 163 for runs 1, 2 and 3, respectively. […] These inserts may be consequent to incomplete restriction enzyme digestion as well as possible residual activity of the Klenow polymerase used in second strand production. The combination of these two factors would result in blunt ends that subsequently ligated. […] Furthermore, five specific peptides were recovered from all three runs and represented a large fraction of the repeats observed within the same run (see Table 2).

Assay [3] has as its target T1, Cx43CT. Kind of assay: NMR 15N-HSQC resonance shifts of 15N-Cx43CT in presence of peptide. The format is binding. Particulars: PBS pH 5.8, peptide to Cx43CT about 2.4 mM to 0.8 mM (3:1). On the procedure:
All NMR data were acquired on a Varian INOVA 600-MHz NMR spectrometer using a cryoprobe (MacUra & Ernst, “Elucidation of Cross Relaxation in Liquids by Two-dimensional NMR Spectroscopy,” Mol. Phys. 41:95-117 (1980), which is hereby incorporated by reference in its entirety); the sample temperature was maintained at 7° C. Gradient-enhanced two-dimensional ^1H-^15N HSQC experiments (Kay et al., “Pure Absorption Gradient Enhanced Heteronuclear Single Quantum Correlation Spectroscopy with Improved Sensitivity,” J. Am. Chem. Soc. 114:10663-10665 (1992), which is hereby incorporated by reference in its entirety) were used to observe all backbone amide resonances in ^15N-labeled Cx43CT. Data were acquired with 1024 complex points in t2 and 128 complex points in t1. Sweep widths were 10,000 Hz in the proton dimension and 2,500 Hz in the nitrogen dimension. The concentration of RXP peptide to Cx43CT was approximately 2.4 mM to 0.8 mM, respectively (3:1 ratio). All NMR data were processed using NMRPipe (Delaglio et al., “NMRPipe: A Multidimensional Spectral Processing System Based on UNIX Pipes,” J. Biomol. NMR 6(3):277-293 (1995), which is hereby incorporated by reference in its entirety) and analyzed using NMRView (Sorgen, “How to Solve a Protein Structure by Nuclear Magnetic Resonance The Connexin43 Carboxyl Terminal Domain,” in PRACTICAL METHODS IN CARDIOVASCULAR RESEARCH 948-958 (Stefan Dhein, Friedrich Wilhelm Mohr & Mario Delmar eds., 2005), which is hereby incorporated by reference in its entirety).
Peptides RXP1, RXP4 and RXP-E were tested for their ability to modify the structure of Cx43CT. The peptides were diluted in PBS (pH 5.8) containing ^15N-Cx43CT, and ^15N-HSQC spectra were acquired. Results for RXP4 and RXP-E are shown in FIGS. 4A (RXP4) and 4B (RXP-E). The specific resonance peaks that correspond to each amino acid in the Cx43CT sequence have been assigned (Sorgen et al., “Sequence-specific Resonance Assignment of the Carboxyl Terminal Domain of Connexin43,” J. Biomol. NMR 23(3):245-246 (2002), which is hereby incorporated by reference in its entirety). […]

T1 sequence (P08050 255-382): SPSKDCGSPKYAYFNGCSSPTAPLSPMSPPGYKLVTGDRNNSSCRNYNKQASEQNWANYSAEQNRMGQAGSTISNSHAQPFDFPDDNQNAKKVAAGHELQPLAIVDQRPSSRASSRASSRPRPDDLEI

“AcRNP-NH2 (Ac-Arg-Asn-Pro-NH2) [Peptide 2502, small RXP peptide]”: in the assay with Cx43CT [1] (peptide concentration 1.0 mM), the “Response (SPR amplitude)” value was found to be 4.6 arbitrary units.

Consider “AcRNPRNP-NH2 (Ac-RNPRNP-NH2) [Peptide 2501]”, for which the “Response (SPR amplitude)” value came out at 14.4 arbitrary units with Cx43CT [1] (peptide concentration 500 μM) and 24.8 arbitrary units in the assay with Cx43CT [1] (peptide concentration 1.0 mM).

In the case of AcRRKP-NH2 (Ac-RRKP-NH2) [Peptide 2504], the “Response (SPR amplitude)” value with Cx43CT [1] (peptide concentration 1.0 mM) is 46.5 arbitrary units.

As to “AcRRKPRRKP-NH2 (Ac-RRKPRRKP-NH2) [Peptide 2503]”, the “Response (SPR amplitude)” value with Cx43CT [1] (peptide concentration 25 μM) came to 27.5 arbitrary units; with Cx43CT [1] (peptide concentration 100 μM) it was 80.6 arbitrary units; with Cx43CT [1] (peptide concentration 250 μM), 147.0 arbitrary units; with Cx43CT [1] (peptide concentration 500 μM), 214.8 arbitrary units; with Cx43CT [1] (peptide concentration 1.0 mM), 294.7 arbitrary units.

Turning to AcRRNP-NH2 (Ac-RRNP-NH2) [Peptide 2505], the “Response (SPR amplitude)” value with Cx43CT [1] (peptide concentration 1.0 mM) was 34.9 arbitrary units.

In the case of “DVPGRDPGYIKGGGSAHARVPFYSHSLNRNRKPSLYQ (RXP-containing peptide) [RXP-A]”, in the assay with Cx43CT [2], the “Total Frequency (%)” value was found to be 40%, the “Frequency Run 2(%)” value is 64.7%, the “Frequency Run 1 (%)” value stood at 20.8% and the “Frequency Run 3 (%)” value is 36.2%.

Take “EIQPRSPLMFSGGGSAHARVPFYSHSAKEARWPRAHR (RXP-containing peptide) [RXP-B]”: in the assay with Cx43CT [2], the “Total Frequency (%)” value amounted to 8.2%, the “Frequency Run 2(%)” value is given as 2.5%, the “Frequency Run 1 (%)” value came to 6.7% and the “Frequency Run 3 (%)” value is listed as 13.5%.

On to “G H L H L R V P T L K M (GHLHLRVPTLKM; RXP-containing peptide) [RXP1]”, for which the “Shift of Cx43CT resonance peaks (15N-HSQC)” value with Cx43CT [3] was “no resonance shifts were observed”. Moreover, the “SPR binding to Cx43CT (in words)” value with Cx43CT [1] is given as “detectable, pH-dependent binding”; in the assay with Cx43CT [1] (listed as RXP-1) it was “very weak (almost undetectable) interaction”.

For “GIAAREPNSHDGGGSAHARVPFYSHSRDLWRKPAKSL (RXP-containing peptide)”, in the assay with Cx43CT [2], the “Total Frequency (%)” value worked out at 15.2%, the “Frequency Run 2(%)” value was 11.8%, the “Frequency Run 1 (%)” value was found to be 12.5% and the “Frequency Run 3 (%)” value amounted to 19.6%.

Turning to “R R P P Y R V P R K L F (RRPPYRVPPKLF) [RXP4]”, the “Shift of Cx43CT resonance peaks (15N-HSQC)” value with Cx43CT [3] was “strongly affected the resonance peaks of residues R376, D378, and D379”; in the assay with Cx43CT [3] (listed as RXP-4), “caused a shift in the position of residues 376, 378 and 379, as well as residues 343-346”. In addition, the “SPR binding to Cx43CT (in words)” value with Cx43CT [1] is reported as “too weak to allow for proper calculation of kinetic values”; with Cx43CT [1] (listed as RXP-4), “weak intermolecular binding”.

On to “WEEPRRPFTMSGGGSAETHARVPFYSHSPMRHRLPGVHL (RXP-containing peptide) [RXP-D]”, for which, in the assay with Cx43CT [2], the “Total Frequency (%)” value is 6%, the “Frequency Run 2(%)” value is recorded as 0.8%, the “Frequency Run 1 (%)” value amounted to 16.7% and the “Frequency Run 3 (%)” value came out at 1.8%.
